Measured values as given in publication PMC7587441, “Plasmodium falciparum Apicomplexan-Specific Glucosamine-6-Phosphate N-Acetyltransferase Is Key for Amino Sugar Metabolism and Asexual Blood Stage Development” (mBio, 2020).

Biological target: Cryptosporidium parvum glucosamine-6-phosphate N-acetyltransferase (CpGNA1) (Cryptosporidium parvum)
Experiment: crystal structure; CpGNA1 (1.5 mg/ml) cocrystallised with 10 mM acetyl-CoA, soaked with 50 mM acetyl-CoA and 50 mM Glc6P; space group P2(1)2(1)2(1), two monomers in the asymmetric unit; 1.95 Å

A stoichiometry N of 2 was found for “Cryptosporidium parvum glucosamine-6-phosphate N-acetyltransferase (CpGNA1) (enzyme)” in this work.
